Results as given in patent US20200079833A1 (AstraZeneca / MedImmune, published 2020).
Starred links: 1 amine or outer side, 2 acyl side, 3 side chain; linkers in the order of their positions; H or OH if unused. Non-standard residues stand in square brackets, D forms with d. Groups on a side chain read outwards from the residue. Primed or numbered codes have the meaning given here. No end group written: not given here. *: point of attachment. Dodecanoyl(12-OPh(4-COOH)) = O=C(O)c1ccc(OCCCCCCCCCCCC(=O)*)cc1; γGlu = O=C(O)[C@H](CCC(=O)[*:2])N[*:1]; Stearoyl = CCCCCCCCCCCCCCCCCC(=O)*; αMeF = C[C@](N)(Cc1ccccc1)C(=O)O; αMeK = C[C@](N)(CCCCN)C(=O)O; Lauroyl = CCCCCCCCCCCC(=O)*; αMeS = C[C@](N)(CO)C(=O)O; PEG2′ = not defined here; Aib = CC(C)(N)C(=O)O; Ahx = NCCCCCC(=O)O

T1: GLP-1R (INS1e assay) (UniProt P32301 22-463, limits assumed)
T1 sequence (looked up): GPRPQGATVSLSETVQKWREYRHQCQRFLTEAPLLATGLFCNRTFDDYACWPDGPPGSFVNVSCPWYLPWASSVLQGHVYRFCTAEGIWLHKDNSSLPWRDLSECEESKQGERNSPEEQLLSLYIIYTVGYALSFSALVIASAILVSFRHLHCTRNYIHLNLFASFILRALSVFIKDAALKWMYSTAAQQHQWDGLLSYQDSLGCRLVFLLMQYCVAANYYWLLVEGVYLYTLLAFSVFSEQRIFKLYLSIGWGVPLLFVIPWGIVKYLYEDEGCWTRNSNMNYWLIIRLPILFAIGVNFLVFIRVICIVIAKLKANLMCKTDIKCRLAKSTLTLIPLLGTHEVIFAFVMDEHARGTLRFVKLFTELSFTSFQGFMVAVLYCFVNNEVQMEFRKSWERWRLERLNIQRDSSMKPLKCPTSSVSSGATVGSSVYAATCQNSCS

B1: SEQ ID NO 117 (peptide)
peptide: H[Aib]EGS[αMeF]TSDV[αMeS]K([PEG2′-PEG2′-γGlu-Stearoyl])[αMeF]LEGEAA[αMeK]E[αMeF]IA[αMeF]VV[αMeK]GG-NH2
B2: SEQ ID NO 116 (peptide)
peptide: H[Aib]EGS[αMeF]TSDV[αMeS]SK([PEG2′-PEG2′-γGlu-Stearoyl])LEGEAA[αMeK]E[αMeF]IA[αMeF]VV[αMeK]GG-NH2
B3: SEQ ID NO 140 (peptide)
peptide: H[Aib]EGS[αMeF]TSDV[αMeS]S[αMeF]LEGEAAK([Ahx-Dodecanoyl(12-OPh(4-COOH))])E[αMeF]IA[αMeF]VV[αMeK]GG-NH2
modifications: N-terminus assumed
SMILES: CC[C@H](C)[C@H](NC(=O)[C@](C)(Cc1ccccc1)NC(=O)[C@H](CCC(=O)O)NC(=O)[C@H](CCCCNC(=O)CCCCCNC(=O)CCCCCCCCCCCOc1ccc(C(=O)O)cc1)NC(=O)[C@H](C)NC(=O)[C@H](C)NC(=O)[C@H](CCC(=O)O)NC(=O)CNC(=O)[C@H](CCC(=O)O)NC(=O)[C@H](CC(C)C)NC(=O)[C@](C)(Cc1ccccc1)NC(=O)[C@H](CO)NC(=O)[C@](C)(CO)NC(=O)[C@@H](NC(=O)[C@H](CC(=O)O)NC(=O)[C@H](CO)NC(=O)[C@@H](NC(=O)[C@](C)(Cc1ccccc1)NC(=O)[C@H](CO)NC(=O)CNC(=O)[C@H](CCC(=O)O)NC(=O)C(C)(C)NC(=O)[C@@H](N)Cc1c[nH]cn1)[C@@H](C)O)C(C)C)C(=O)N[C@@H](C)C(=O)N[C@@](C)(Cc1ccccc1)C(=O)N[C@H](C(=O)N[C@H](C(=O)N[C@@](C)(CCCCN)C(=O)NCC(=O)NCC(N)=O)C(C)C)C(C)C
B4: SEQ ID NO 112 (peptide)
peptide: H[Aib]EGS[αMeF]TSDV[αMeS]S[αMeF]LEGK([PEG2′-PEG2′-γGlu-Stearoyl])AA[αMeK]E[αMeF]IA[αMeF]VV[αMeK]GG-NH2
B5: SEQ ID NO 141 (peptide)
peptide: H[Aib]EGS[αMeF]TSDV[αMeS]S[αMeF]LEGEAAK([Ahx-Ahx-Dodecanoyl(12-OPh(4-COOH))])E[αMeF]IA[αMeF]VV[αMeK]GG-NH2
modifications: N-terminus assumed
SMILES: CC[C@H](C)[C@H](NC(=O)[C@](C)(Cc1ccccc1)NC(=O)[C@H](CCC(=O)O)NC(=O)[C@H](CCCCNC(=O)CCCCCNC(=O)CCCCCNC(=O)CCCCCCCCCCCOc1ccc(C(=O)O)cc1)NC(=O)[C@H](C)NC(=O)[C@H](C)NC(=O)[C@H](CCC(=O)O)NC(=O)CNC(=O)[C@H](CCC(=O)O)NC(=O)[C@H](CC(C)C)NC(=O)[C@](C)(Cc1ccccc1)NC(=O)[C@H](CO)NC(=O)[C@](C)(CO)NC(=O)[C@@H](NC(=O)[C@H](CC(=O)O)NC(=O)[C@H](CO)NC(=O)[C@@H](NC(=O)[C@](C)(Cc1ccccc1)NC(=O)[C@H](CO)NC(=O)CNC(=O)[C@H](CCC(=O)O)NC(=O)C(C)(C)NC(=O)[C@@H](N)Cc1c[nH]cn1)[C@@H](C)O)C(C)C)C(=O)N[C@@H](C)C(=O)N[C@@](C)(Cc1ccccc1)C(=O)N[C@H](C(=O)N[C@H](C(=O)N[C@@](C)(CCCCN)C(=O)NCC(=O)NCC(N)=O)C(C)C)C(C)C
B6: SEQ ID NO 136 (peptide)
peptide: H[Aib]EGS[αMeF]TSDV[αMeS]S[αMeF]LEGEAAK([PEG2′-PEG2′-PEG2′-Lauroyl])E[αMeF]IA[αMeF]VV[αMeK]GG-NH2
B7: SEQ ID NO 119 (peptide)
peptide: H[Aib]EGS[αMeF]TSDK([PEG2′-PEG2′-γGlu-Stearoyl])[αMeS]S[αMeF]LEGEAA[αMeK]E[αMeF]IA[αMeF]VV[αMeK]GG-NH2
B8: SEQ ID NO 143 (peptide)
peptide: H[Aib]EGS[αMeF]TSDV[αMeS]S[αMeF]LEGEAAK([PEG2′-Dodecanoyl(12-OPh(4-COOH))])E[αMeF]IA[αMeF]VV[αMeK]GG-NH2
B9: SEQ ID NO 137 (peptide)
peptide: H[Aib]EGS[αMeF]TSDV[αMeS]S[αMeF]LEGEAAK([γGlu-Dodecanoyl(12-OPh(4-COOH))])E[αMeF]IA[αMeF]VV[αMeK]GG-NH2
modifications: N-terminus assumed
SMILES: CC[C@H](C)[C@H](NC(=O)[C@](C)(Cc1ccccc1)NC(=O)[C@H](CCC(=O)O)NC(=O)[C@H](CCCCNC(=O)CC[C@H](NC(=O)CCCCCCCCCCCOc1ccc(C(=O)O)cc1)C(=O)O)NC(=O)[C@H](C)NC(=O)[C@H](C)NC(=O)[C@H](CCC(=O)O)NC(=O)CNC(=O)[C@H](CCC(=O)O)NC(=O)[C@H](CC(C)C)NC(=O)[C@](C)(Cc1ccccc1)NC(=O)[C@H](CO)NC(=O)[C@](C)(CO)NC(=O)[C@@H](NC(=O)[C@H](CC(=O)O)NC(=O)[C@H](CO)NC(=O)[C@@H](NC(=O)[C@](C)(Cc1ccccc1)NC(=O)[C@H](CO)NC(=O)CNC(=O)[C@H](CCC(=O)O)NC(=O)C(C)(C)NC(=O)[C@@H](N)Cc1c[nH]cn1)[C@@H](C)O)C(C)C)C(=O)N[C@@H](C)C(=O)N[C@@](C)(Cc1ccccc1)C(=O)N[C@H](C(=O)N[C@H](C(=O)N[C@@](C)(CCCCN)C(=O)NCC(=O)NCC(N)=O)C(C)C)C(C)C
B10: SEQ ID NO 135 (peptide)
peptide: H[Aib]EGS[αMeF]TSDV[αMeS]S[αMeF]LEGEAAK([PEG2′-PEG2′-Lauroyl])E[αMeF]IA[αMeF]VV[αMeK]GG-NH2
B11: SEQ ID NO 115 (peptide)
peptide: H[Aib]EGS[αMeF]TSDV[αMeS]S[αMeF]K([PEG2′-PEG2′-γGlu-Stearoyl])EGEAA[αMeK]E[αMeF]IA[αMeF]VV[αMeK]GG-NH2
B12: SEQ ID NO 132 (peptide)
peptide: H[Aib]EGS[αMeF]TSDV[αMeS]S[αMeF]LEGEAAK([Ahx-Ahx-Lauroyl])E[αMeF]IA[αMeF]VV[αMeK]GG-NH2
modifications: N-terminus assumed
SMILES: CCCCCCCCCCCC(=O)NCCCCCC(=O)NCCCCCC(=O)NCCCC[C@H](NC(=O)[C@H](C)NC(=O)[C@H](C)NC(=O)[C@H](CCC(=O)O)NC(=O)CNC(=O)[C@H](CCC(=O)O)NC(=O)[C@H](CC(C)C)NC(=O)[C@](C)(Cc1ccccc1)NC(=O)[C@H](CO)NC(=O)[C@](C)(CO)NC(=O)[C@@H](NC(=O)[C@H](CC(=O)O)NC(=O)[C@H](CO)NC(=O)[C@@H](NC(=O)[C@](C)(Cc1ccccc1)NC(=O)[C@H](CO)NC(=O)CNC(=O)[C@H](CCC(=O)O)NC(=O)C(C)(C)NC(=O)[C@@H](N)Cc1c[nH]cn1)[C@@H](C)O)C(C)C)C(=O)N[C@@H](CCC(=O)O)C(=O)N[C@@](C)(Cc1ccccc1)C(=O)N[C@H](C(=O)N[C@@H](C)C(=O)N[C@@](C)(Cc1ccccc1)C(=O)N[C@H](C(=O)N[C@H](C(=O)N[C@@](C)(CCCCN)C(=O)NCC(=O)NCC(N)=O)C(C)C)C(C)C)[C@@H](C)CC
B13: SEQ ID NO 134 (peptide)
peptide: H[Aib]EGS[αMeF]TSDV[αMeS]S[αMeF]LEGEAAK([PEG2′-Lauroyl])E[αMeF]IA[αMeF]VV[αMeK]GG-NH2
B14: SEQ ID NO 113 (peptide)
peptide: H[Aib]EGS[αMeF]TSDV[αMeS]S[αMeF]LEK([PEG2′-PEG2′-γGlu-Stearoyl])EAA[αMeK]E[αMeF]IA[αMeF]VV[αMeK]GG-NH2
B15: SEQ ID NO 153 (peptide)
peptide: H[Aib]EGS[αMeF]TSDV[αMeS]S[αMeF]LEGEAAK([PEG2′-PEG2′-Stearoyl])E[αMeF]IA[αMeF]VV[αMeK]GG-NH2

The binders below were run against T1, GLP-1R (INS1e assay) (assay: cell-based or functional assay).

Binder | INS1e assay EC50 GLP-1 R n1 [pM] | INS1e assay EC50 GLP-1 R n2 [pM] | INS1e assay EC50 Mean pM GLP-1R [pM]
B1 | 765 | 1670 | 1220
B2 | 1610 | 610 | 1110
B3 | 43.2 | 16.7 | 30
B4 | 294 | 476 | 385
B5 | 44.7 | 36.7 | 41
B6 | 52.6 | 21.5 | 37
B7 | 2710 | 1450 | 2080
B8 | 45.1 | 22.7 | 34
B9 | 63.7 | 36.2 | 50
B10 | 98.6 | 59.3 | 79
B11 | 593 | 494 | 544
B12 | 129 | 115 | 122
B13 | 168 | 77.6 | 123
B14 | 823 | 1260 | 1040
B15 | 55 | 61.2 | 58
